Laboratory results reported in IntAct's records for PubMed 16482218.

B1: Transcription factor Dp-2 (Mus musculus), Q64163-4 (parent)
chain: MIISTPQRIANSGSVLIGNPYTPAPAMVTQTHIAEAAGWVPSDRKRAREFIDSDFSESKRSKKGDKNGKGLRHFSMKVCEKVQRKGTTSYNEVADELVSEFTNSNNHLAADSAYDQENIRRRVYDALNVLMAMNIISSLPTGKKRNQVDCNSAQECQNLEIEKQRRIERIKQKRAQLQELLLQQIAFKNLVQRNRQNEQQNQGPPAVNSTIQLPFIIINTSRKTVIDCSISSDKFEYLFNFDNTFEIHDDIEVLKRMGMSFGLESGKCSLEDLKIARSLVPKALEGYITDISTGPSWLNQGLLLNSTQSVSNLDPTTGATVPQSSVNQGLCLDAEVALATGQLPASNSHQSSSAASHFSESRGETPCSFNDEDEEDEEEDPSSPE

Variants of: B1
Conditions: with 1433e_mouse Ywhae

effect of a mutation on the interaction	Variant
disrupting interaction	S53A
disrupting interaction	S42A
disrupting interaction	S58A
disrupting interaction	S61A
disrupting interaction	S56A
